Reference: patent publication US20110268740A1

Tests used:
[1] = target: M2e consensus peptide (free, soluble) (Influenza A virus (consensus of H1, H2 and H3 subtypes of human Influenza A viruses)); experiment: Friguet ELISA, free M2e peptide in solution
[2] = target: M2e-short (Influenza A virus (consensus)); experiment: ELISA, apparent affinity, purified scFv-msFcγ2c on immobilised M2e-short
[3] = target: scFv-E040-msFcγ2c

Binder | Kd [1] [µM] | EC50 [2] [nM] | EC50 [3] [µM]
scFv-E040-msFcγ2c (Fc fusion) DADPAQAAELVMTQSPDSLAVSLGERATINCKSSQSVLYSSNNENYLAWYQQKPGQPPKLLIYWASTRESGVPDRFSGSGSGTDFTLTINSVQAEDVAVYYCQQYFMTPITFGQGTRLEIKGGSSRSSSSGGGGSGGGGEVQLLESGGALVQPGRSLRLSCRTSGLNFGDYPINWVRQAPGKGLEWVGFIKSKSYGVTTEFAASVEGRFTISRDDSRGIAYLQMNSLKTEDTAVYYCTSSSGFLYYFDYWGQGTLVTVSSASTKGPSVTSGQAGRKLEPRVPITQNPCPPLKECPPCAAPDLLGGPSVFIFPPKIKDVLMISLSPMVTCVVVDVSEDDPDVQISWFVNNVEVHTAQTQTHREDYNSTLRVVSALPIQHQDWMSGKEFKCKVNNRALPSPIEKTISKPRGPVRAPQVYVLPPPAEEMTKKEFSLTCMITGFLPAEIAVDWTSNGRTEQNYKNTATVLDSDGSYFMYSKLRVQKSTWERGSLFACSVVHEGLHNHLTTKTISRSLGK | 0.004 | 0.0902 | 
SLLTEVETPIRNEWGCRCNDSSD (modifications not checked) [M2e consensus peptide (free, soluble)] |  |  | 21.3
SLLTEVETPIRNEWGC (modifications not checked) [M2e-short] |  |  | 35.5
